From patent publication US5981483
Several values for one entry are separate records, joined by “and”; a condition that tells them apart may be missing. Equal entries are not always repeated.

Legend:
[1] = target: TGF-β2; test: SPR (BIAcore); analyte over immobilized cytokine; repeated calculation
[2] = target: BMP-6; test: as above
[3] = target: BMP-4; test: as above
[4] = target: active TGF-β produced by Mv1Lu cells (mink)
[5] = target: purified human TGF-β1 (human) (UniProt P01137)
[6] = target: T1, recombinant human BMP-2 (human) (UniProt P12643)
T1 sequence: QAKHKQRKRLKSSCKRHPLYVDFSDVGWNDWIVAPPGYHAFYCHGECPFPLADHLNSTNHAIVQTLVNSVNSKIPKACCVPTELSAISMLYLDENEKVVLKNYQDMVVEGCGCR

[7] = target: TGF-β2; test: SPR (BIAcore); analyte over immobilized cytokine
[8] = target: BMP-6; test: SPR (BIAcore); analyte over immobilized cytokine
[9] = target: BMP-4; test: SPR (BIAcore); analyte over immobilized cytokine
[10] = target: purified human TGF-β1 (human) (UniProt P01137); remark: listed apart in the source
[11] = target: purified human TGF-β1 (human) (UniProt P01137); remark: listed apart in the source
[12] = target: TGF-β in dexamethasone-treated rat bone marrow cultures (rat)

purified human TGF-β1 (human), sequence (P01137 279-390 limits assumed): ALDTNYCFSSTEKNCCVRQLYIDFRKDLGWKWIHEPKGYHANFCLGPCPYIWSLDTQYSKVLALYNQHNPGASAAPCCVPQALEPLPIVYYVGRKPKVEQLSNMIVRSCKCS
BMP-6, sequence (P22004 375-513): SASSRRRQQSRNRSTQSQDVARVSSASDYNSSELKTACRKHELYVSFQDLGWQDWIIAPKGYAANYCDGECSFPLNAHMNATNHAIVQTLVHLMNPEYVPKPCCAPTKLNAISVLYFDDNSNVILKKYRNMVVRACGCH

- Kd [1]: 4400 nM
- koff [1]: 0.0024 s⁻¹
- kon [1]: 550 M⁻¹ s⁻¹
- Kd [2]: 710 nM
- koff [2]: 0.0021 s⁻¹
- kon [2]: 2900 M⁻¹ s⁻¹
- Kd [3]: 120 nM
- koff [3]: 0.00051 s⁻¹
- kon [3]: 4200 M⁻¹ s⁻¹
- proliferation of Mv1Lu cells without added cytokine (3H-thymidine incorporation) [4]: 8 pM
- IC50, block of the anti-proliferative activity of exogenously added TGF-β1 (18 pM) on Mv1Lu cells (FIG. 12) [5]: 3e-06 M
- IC50, reversal of BMP-2 inhibition of Mv1Lu cell growth [6]: 2000 nM and 5000 nM
- koff [7]: 0.0032 s⁻¹
- kon [7]: 550 M⁻¹ s⁻¹
- Kd [8]: 860 nM
- koff [8]: 0.0025 s⁻¹
- kon [8]: 2900 M⁻¹ s⁻¹
- Kd [9]: 140 nM
- koff [9]: 0.00058 s⁻¹
- kon [9]: 4200 M⁻¹ s⁻¹
- percent neutralization of the antiproliferative activity of TGF-β1 (3H-thymidine incorporation, Mv1Lu cells) [10]: 150%
- IC50, inhibition of the anti-proliferative activity of TGF-β1 (12 pM) on Mv1Lu cells [11]: 4.2e-06 M
- IC50, inhibition of calcium-deposition [12]: 10000 nM
B1: bovine fetuin (protein)
chain: IPLDPVAGYKEPACDDPDTEQAALAAVDYINKHLPRGYKHTLNQIDSVKVWPRRPTGEVYDIEIDTLETTCHVLDPTPLANCSVRQQTQHAVEGDCDIHVLKQDGQFSVLFTKCDSSPDSAEDVRKLCPDCPLLAPLNDSRVVHAVEVALATFNAESNGSYLQLVEISRAQFVPLPVSVSVEFAVAATDCIAKEVVDPTKCNLLAEKQYGFCKGSVIQKALGGEDVRVTCTLFQTQPVIPQPQPDGAEAEAPSAVPDAAGPTPSAAGPPVASVVVGPSVVAVPLPLHRAHYDLRHTFSGVASVESSSGEAFHVGKTPIVGQPSIPGGPVRLCPGRIRYFKI
